Laboratory results taken from patent US20240269307A1 (JIANGSU HENGRUI PHARMACEUTICALS, published 2024).
Blank lines part the entries; values can stand above or below the binder they belong to.

Key:
[1] = biological target: T1, human Nectin-4 expressed on cells (Nectin4-CHOK1, T47D, MDA-MB-468) (human, UniProt Q96NY8 32-510); experiment: cell-based or functional assay
T1 sequence: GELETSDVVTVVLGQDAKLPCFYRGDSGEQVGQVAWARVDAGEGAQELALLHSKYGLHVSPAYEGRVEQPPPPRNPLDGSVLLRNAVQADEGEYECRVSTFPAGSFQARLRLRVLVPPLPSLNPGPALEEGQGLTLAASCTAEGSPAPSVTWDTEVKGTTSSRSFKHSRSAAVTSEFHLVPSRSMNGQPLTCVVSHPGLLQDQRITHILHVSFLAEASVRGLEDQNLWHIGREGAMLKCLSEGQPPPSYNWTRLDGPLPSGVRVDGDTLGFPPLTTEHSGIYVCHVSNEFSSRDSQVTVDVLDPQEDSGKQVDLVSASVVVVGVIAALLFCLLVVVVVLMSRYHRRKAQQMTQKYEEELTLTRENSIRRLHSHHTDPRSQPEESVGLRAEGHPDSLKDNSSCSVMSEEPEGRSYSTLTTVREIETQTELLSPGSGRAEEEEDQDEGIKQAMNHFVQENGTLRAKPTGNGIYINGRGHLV

[2] = biological target: T1, human Nectin-4 expressed on cells …; experiment: cell-based or functional assay; remark: listed apart in the source

B1: ADC-1 (NEC49-9-A) (antibody, V domains shown)
VH: EVQLLESGGGLVQPGGSLRLSCAASGFTFSSYAMSWVRQAPGKGLEWVSAIYSGGSTYYADSVKGRFTISRDNSKNTLYLQMNSLRAEDTAVYYCTRHGGDSGSWSYYYYGMDVWGQGTTVTVSS
VL: not shown
modifications: compound 9-A (exatecan analog linker-drug) coupled to cysteine sulfhydryls after TCEP reduction; average loading n=4.90 for the whole antibody; positions not given
IC50(nM), killing of MDA-MB-468 (++) cells, CTG, 6 days [1]: 87.5 nM
IC50(nM), killing of T47D (+++) cells, CTG, 6 days [1]: 111 nM

IC50 (nM), DT3C antibody endocytosis assay on Nectin4-CHOK1 cells [2]: 0.43 nM
B2: fully human antibody molecule NEC49 (antibody, V domains shown)
VH: B1 VH
VL: not shown

B3: ADC-2 (EV201-9-A) (antibody, human IgG1, kappa, V domains shown)
VH: EVQLVESGGGLVQPGGSLRLSCAASGFTFSSYNMNWVRQAPGKGLEWVSYISSSSSTIYYADSVKGRFTISRDNAKNSLSLQMNSLRDEDTAVYYCARAYYYGMDVWGQGTTVTVSS
VL: DIQMTQSPSSVSASVGDRVTITCRASQGISGWLAWYQQKPGKAPKFLIYAASTLQSGVPSRFSGSGSGTDFTLTISSLQPEDFATYYCQQANSFPPTFGGGTKVEIKR
modifications: compound 9-A (exatecan analog linker-drug) coupled to cysteine sulfhydryls after TCEP reduction; average loading n=3.90 for the whole antibody; positions not given
IC50(nM), killing of MDA-MB-468 (++) cells, CTG, 6 days [1]: 152 nM
IC50(nM), killing of T47D (+++) cells, CTG, 6 days [1]: 193 nM

IC50 (nM), DT3C antibody endocytosis assay on Nectin4-CHOK1 cells [2]: 0.5 nM
B4: positive control antibody EV201 (antibody, human IgG1, kappa, V domains shown)
VH: B3 VH
VL: B3 VL
